According to patent US20180155451A1 (published 2018):

B1: GpH7-B3 variant I336_06M/GpL16-k0 (Ho Ab) (antibody, human IgG1, kappa)
heavy: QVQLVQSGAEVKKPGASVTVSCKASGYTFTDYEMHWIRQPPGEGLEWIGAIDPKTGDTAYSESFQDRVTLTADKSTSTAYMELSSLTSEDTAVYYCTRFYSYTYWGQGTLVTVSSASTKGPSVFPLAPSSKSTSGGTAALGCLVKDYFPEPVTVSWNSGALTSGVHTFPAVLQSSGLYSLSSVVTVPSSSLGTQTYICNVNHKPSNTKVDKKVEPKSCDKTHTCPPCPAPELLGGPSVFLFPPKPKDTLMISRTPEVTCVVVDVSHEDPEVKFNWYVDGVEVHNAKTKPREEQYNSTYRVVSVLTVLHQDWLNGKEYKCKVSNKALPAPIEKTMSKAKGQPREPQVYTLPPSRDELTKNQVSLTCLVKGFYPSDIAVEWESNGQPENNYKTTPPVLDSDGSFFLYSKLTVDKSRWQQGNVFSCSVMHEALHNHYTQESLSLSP
light: DIVMTQSPLSLPVTPGEPASISCQASESLVHSNRNTYLHWYLQKPGQSPQLLIYKVSNRFSGVPDRFSGSGSGTDFTLKISRVEAEDVGVYYCSQNTHVPPTFGQGTKVEIERTVAAPSVFIFPPSDEQLKSGTASVVCLLNNFYPREAKVQWKVDNALQSGNSQESVTEQDSKDSTYSLSSTLTLSKADYEKHKVYACEVTHQGLSSPVTKSFNRGEC
notes: Ho Ab: alteration in both H chains
B2: GpH7-B3 variant Q295_04F/GpL16-k0 (Ho Ab) (antibody, human IgG1, kappa)
heavy: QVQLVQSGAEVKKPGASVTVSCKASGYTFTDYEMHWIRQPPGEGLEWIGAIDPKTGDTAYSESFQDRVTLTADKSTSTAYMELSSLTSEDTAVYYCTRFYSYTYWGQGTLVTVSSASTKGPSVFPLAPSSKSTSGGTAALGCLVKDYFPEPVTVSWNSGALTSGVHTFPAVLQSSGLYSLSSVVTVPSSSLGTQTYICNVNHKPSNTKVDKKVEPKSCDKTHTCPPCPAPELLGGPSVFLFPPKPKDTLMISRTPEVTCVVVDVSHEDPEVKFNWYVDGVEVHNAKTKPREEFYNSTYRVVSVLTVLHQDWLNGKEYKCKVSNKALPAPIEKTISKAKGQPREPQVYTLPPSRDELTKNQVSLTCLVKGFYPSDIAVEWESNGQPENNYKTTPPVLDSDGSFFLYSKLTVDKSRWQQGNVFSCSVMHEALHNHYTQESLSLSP
light: B1 light
notes: as for B1
B3: GpH7-B3 variant Q295_13S/GpL16-k0 (Ho Ab) (antibody, human IgG1, kappa)
heavy: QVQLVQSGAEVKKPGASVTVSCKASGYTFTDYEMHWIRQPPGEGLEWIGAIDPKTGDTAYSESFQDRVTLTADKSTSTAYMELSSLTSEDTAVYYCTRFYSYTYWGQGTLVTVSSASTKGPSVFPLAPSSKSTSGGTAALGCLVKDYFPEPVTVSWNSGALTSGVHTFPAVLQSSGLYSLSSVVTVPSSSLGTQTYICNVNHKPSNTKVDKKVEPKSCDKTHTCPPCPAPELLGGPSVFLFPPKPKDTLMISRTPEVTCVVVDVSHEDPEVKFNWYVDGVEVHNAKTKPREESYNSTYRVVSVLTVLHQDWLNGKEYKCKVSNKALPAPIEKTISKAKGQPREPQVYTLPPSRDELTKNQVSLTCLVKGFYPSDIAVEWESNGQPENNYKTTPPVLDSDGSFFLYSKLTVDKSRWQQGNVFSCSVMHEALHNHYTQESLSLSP
light: B1 light
notes: as for B1
B4: GpH7-B3 variant P271_20W/GpL16-k0 (Ho Ab) (antibody, human IgG1, kappa)
heavy: not shown
light: B1 light
notes: as for B1
B5: GpH7-B3 variant P271_13S/GpL16-k0 (Ho Ab) (antibody, human IgG1, kappa)
heavy: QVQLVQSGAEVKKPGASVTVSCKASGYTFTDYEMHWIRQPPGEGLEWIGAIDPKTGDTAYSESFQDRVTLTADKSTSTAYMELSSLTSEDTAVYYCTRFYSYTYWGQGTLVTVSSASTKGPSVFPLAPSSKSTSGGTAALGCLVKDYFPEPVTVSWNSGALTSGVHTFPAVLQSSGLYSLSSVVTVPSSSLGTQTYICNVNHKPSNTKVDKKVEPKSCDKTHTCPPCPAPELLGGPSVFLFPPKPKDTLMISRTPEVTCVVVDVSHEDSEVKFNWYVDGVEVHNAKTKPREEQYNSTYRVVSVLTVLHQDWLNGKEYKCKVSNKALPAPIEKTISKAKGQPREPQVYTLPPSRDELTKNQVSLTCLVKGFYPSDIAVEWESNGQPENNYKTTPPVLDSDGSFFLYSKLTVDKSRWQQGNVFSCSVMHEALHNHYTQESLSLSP
light: B1 light
notes: as for B1
B6: GpH7-B3 variant P271_07I/GpL16-k0 (Ho Ab) (antibody, human IgG1, kappa)
heavy: not shown
light: B1 light
notes: as for B1
B7: GpH7-B3 variant Q295_02A/GpL16-k0 (Ho Ab) (antibody, human IgG1, kappa)
heavy: not shown
light: B1 light
notes: as for B1
B8: GpH7-B3 variant Q295_03V/GpL16-k0 (Ho Ab) (antibody, human IgG1, kappa)
heavy: not shown
light: B1 light
notes: as for B1
B9: GpH7-B3 variant P271_04F/GpL16-k0 (Ho Ab) (antibody, human IgG1, kappa)
heavy: not shown
light: B1 light
notes: as for B1
B10: GpH7-B3 variant Q295_07I/GpL16-k0 (Ho Ab) (antibody, human IgG1, kappa)
heavy: not shown
light: B1 light
notes: as for B1
B11: GpH7-B3 variant K326_14T/GpL16-k0 (Ho Ab) (antibody, human IgG1, kappa)
heavy: not shown
light: B1 light
notes: as for B1
B12: GpH7-B3 variant I336_10E/GpL16-k0 (Ho Ab) (antibody, human IgG1, kappa)
heavy: not shown
light: B1 light
notes: as for B1
B13: GpH7-B3 variant Q295_05P/GpL16-k0 (Ho Ab) (antibody, human IgG1, kappa)
heavy: not shown
light: B1 light
notes: as for B1
B14: GpH7-B3 variant P271_06M/GpL16-k0 (Ho Ab) (antibody, human IgG1, kappa)
heavy: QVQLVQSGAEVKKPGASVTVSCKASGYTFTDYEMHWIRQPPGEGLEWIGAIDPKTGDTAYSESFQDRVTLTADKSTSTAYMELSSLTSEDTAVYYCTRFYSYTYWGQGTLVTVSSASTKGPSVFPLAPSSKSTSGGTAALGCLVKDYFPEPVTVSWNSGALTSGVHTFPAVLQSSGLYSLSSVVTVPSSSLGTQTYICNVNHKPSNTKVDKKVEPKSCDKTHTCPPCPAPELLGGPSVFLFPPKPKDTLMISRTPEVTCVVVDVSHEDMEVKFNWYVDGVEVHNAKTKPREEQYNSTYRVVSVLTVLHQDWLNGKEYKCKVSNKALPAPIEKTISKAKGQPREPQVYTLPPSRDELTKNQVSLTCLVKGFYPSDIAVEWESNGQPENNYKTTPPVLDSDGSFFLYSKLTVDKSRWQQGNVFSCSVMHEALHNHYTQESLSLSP
light: B1 light
notes: as for B1
B15: GpH7-B3 variant P271_12R/GpL16-k0 (Ho Ab) (antibody, human IgG1, kappa)
heavy: not shown
light: B1 light
notes: as for B1
B16: GpH7-B3 variant Q295_18N/GpL16-k0 (Ho Ab) (antibody, human IgG1, kappa)
heavy: not shown
light: B1 light
notes: as for B1
B17: GpH7-B3 variant P271_03V/GpL16-k0 (Ho Ab) (antibody, human IgG1, kappa)
heavy: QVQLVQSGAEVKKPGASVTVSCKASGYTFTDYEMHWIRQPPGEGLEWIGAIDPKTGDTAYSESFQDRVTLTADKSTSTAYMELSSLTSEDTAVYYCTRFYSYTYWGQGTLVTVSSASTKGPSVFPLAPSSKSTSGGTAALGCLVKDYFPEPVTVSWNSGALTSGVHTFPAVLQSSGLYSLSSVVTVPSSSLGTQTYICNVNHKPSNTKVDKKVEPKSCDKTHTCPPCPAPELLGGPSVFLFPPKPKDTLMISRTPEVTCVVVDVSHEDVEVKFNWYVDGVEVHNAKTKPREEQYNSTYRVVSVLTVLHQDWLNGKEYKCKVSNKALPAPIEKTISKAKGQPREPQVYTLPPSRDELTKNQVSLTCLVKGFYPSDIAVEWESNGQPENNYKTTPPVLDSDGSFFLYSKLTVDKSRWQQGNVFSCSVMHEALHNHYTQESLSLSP
light: B1 light
notes: as for B1
B18: GpH7-B3 variant K334_10E/GpL16-k0 (Ho Ab) (antibody, human IgG1, kappa)
heavy: not shown
light: B1 light
notes: as for B1
B19: GpH7-B3 variant K326_15Y/GpL16-k0 (Ho Ab) (antibody, human IgG1, kappa)
heavy: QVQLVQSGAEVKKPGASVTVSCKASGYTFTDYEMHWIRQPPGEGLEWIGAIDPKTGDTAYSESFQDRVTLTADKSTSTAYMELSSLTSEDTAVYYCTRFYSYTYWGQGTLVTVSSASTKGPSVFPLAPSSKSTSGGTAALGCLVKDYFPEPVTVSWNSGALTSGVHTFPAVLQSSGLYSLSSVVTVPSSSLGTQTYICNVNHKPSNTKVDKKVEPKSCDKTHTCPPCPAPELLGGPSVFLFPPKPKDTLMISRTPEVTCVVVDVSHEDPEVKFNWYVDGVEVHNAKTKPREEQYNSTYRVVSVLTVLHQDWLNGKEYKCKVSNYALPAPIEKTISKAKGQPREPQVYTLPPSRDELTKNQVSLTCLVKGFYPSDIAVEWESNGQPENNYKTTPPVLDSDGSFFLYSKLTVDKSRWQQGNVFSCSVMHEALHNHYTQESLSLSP
light: B1 light
notes: as for B1
B20: GpH7-B3 variant I336_18N/GpL16-k0 (Ho Ab) (antibody, human IgG1, kappa)
heavy: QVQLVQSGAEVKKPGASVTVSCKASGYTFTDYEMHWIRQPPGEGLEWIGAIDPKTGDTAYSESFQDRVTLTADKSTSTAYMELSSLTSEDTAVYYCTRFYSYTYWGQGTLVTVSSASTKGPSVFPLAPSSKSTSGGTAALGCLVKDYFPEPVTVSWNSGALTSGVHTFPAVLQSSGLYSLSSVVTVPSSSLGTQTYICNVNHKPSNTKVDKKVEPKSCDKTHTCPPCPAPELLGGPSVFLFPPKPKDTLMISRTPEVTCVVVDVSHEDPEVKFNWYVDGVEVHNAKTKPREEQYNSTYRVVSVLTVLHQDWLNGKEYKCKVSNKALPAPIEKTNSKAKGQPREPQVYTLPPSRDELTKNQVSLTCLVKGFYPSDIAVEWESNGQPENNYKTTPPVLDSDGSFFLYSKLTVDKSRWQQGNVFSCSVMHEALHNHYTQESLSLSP
light: B1 light
notes: as for B1
B21: GpH7-B3 variant P271_11K/GpL16-k0 (Ho Ab) (antibody, human IgG1, kappa)
heavy: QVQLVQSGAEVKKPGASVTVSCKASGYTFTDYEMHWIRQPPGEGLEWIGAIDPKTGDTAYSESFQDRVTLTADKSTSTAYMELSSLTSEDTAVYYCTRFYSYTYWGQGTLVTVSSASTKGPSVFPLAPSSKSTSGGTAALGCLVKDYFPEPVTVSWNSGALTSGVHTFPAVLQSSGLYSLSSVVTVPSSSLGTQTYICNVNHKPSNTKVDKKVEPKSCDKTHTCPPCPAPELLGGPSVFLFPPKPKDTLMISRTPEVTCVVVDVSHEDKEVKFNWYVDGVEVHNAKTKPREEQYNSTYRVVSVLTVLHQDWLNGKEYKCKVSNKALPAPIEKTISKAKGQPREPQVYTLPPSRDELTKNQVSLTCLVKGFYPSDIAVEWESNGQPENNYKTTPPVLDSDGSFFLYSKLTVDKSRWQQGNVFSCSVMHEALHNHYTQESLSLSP
light: B1 light
notes: as for B1
B22: GpH7-B3 variant K326_16H/GpL16-k0 (Ho Ab) (antibody, human IgG1, kappa)
heavy: not shown
light: B1 light
notes: as for B1
B23: GpH7-B3 variant Q295_14T/GpL16-k0 (Ho Ab) (antibody, human IgG1, kappa)
heavy: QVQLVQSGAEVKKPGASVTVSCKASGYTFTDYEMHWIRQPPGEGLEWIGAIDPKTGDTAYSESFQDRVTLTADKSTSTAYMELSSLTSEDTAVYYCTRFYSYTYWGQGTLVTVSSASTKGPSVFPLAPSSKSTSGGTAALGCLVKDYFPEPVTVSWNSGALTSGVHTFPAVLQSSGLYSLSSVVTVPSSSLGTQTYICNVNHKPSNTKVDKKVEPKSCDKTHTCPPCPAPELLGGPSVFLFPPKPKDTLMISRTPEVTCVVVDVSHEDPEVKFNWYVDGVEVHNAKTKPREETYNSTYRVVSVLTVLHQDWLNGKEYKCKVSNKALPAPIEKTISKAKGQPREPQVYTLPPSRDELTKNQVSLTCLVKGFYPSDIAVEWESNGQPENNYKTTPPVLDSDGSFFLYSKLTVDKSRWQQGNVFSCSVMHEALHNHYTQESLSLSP
light: B1 light
notes: as for B1

Molecular target: T1, FcγRIa extracellular domain with C-terminal His tag (human, UniProt P12314 16-292)
T1 construct: extracellular domain; Expressed in FreeStyle293 cells; analyte in Biacore; also called FcgRI; FcgRIa
T1 sequence (P12314 16-292): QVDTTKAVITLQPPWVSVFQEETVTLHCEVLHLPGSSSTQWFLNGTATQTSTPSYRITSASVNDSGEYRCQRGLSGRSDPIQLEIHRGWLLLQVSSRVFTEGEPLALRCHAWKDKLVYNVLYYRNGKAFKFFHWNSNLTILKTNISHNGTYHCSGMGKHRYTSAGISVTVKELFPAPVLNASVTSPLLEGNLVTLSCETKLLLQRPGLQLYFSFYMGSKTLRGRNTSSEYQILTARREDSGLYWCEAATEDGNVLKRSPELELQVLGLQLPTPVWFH
Test: SPR Biacore, antibody captured, FcγRIa analyte; vs GpH7-B3/GpL16-k0 = 100

Binder	Ho/Con_1a
B1	104 relative (control = 100)
B2	100 relative (control = 100)
B3	101 relative (control = 100)
B4	102 relative (control = 100)
B5	101 relative (control = 100)
B6	102 relative (control = 100)
B7	104 relative (control = 100)
B8	102 relative (control = 100)
B9	100 relative (control = 100)
B10	101 relative (control = 100)
B11	103 relative (control = 100)
B12	107 relative (control = 100)
B13	101 relative (control = 100)
B14	102 relative (control = 100)
B15	101 relative (control = 100)
B16	101 relative (control = 100)
B17	102 relative (control = 100)
B18	107 relative (control = 100)
B19	101 relative (control = 100)
B20	104 relative (control = 100)
B21	101 relative (control = 100)
B22	101 relative (control = 100)
B23	102 relative (control = 100)
